Results reported in article PMC5840397.

Key:
[1] = target: C-terminally His-tagged human ECRG4(32–148) (human) (UniProt Q9H1Z8); test: SPR; ProteOn XPR36, GLM chip; His-tagged ECRG4 peptides captured by immobilised anti-His antibody; 2 × CTLD–Fc injected at 15.6–250 nM, 60 s association, 120 s dissociation; HBS (10 mM HEPES pH 7.4, 150 mM NaCl, 3 mM EDTA, 0.05% P20); Langmuir model
[2] = target: C-terminally His-tagged human ECRG4(71–132) (human) (UniProt Q9H1Z8); test: as above
[3] = target: C-terminally His-tagged human ECRG4(71–148) (human) (UniProt Q9H1Z8); test: as above
Sequence of C-terminally His-tagged human ECRG4(71–148) (human) (Q9H1Z8 71-148): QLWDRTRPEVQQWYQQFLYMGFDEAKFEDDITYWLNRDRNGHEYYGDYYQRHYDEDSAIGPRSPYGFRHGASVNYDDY

LOX-1 (Homo sapiens) = LOX-1 (Homo sapiens) (UniProt P78380); conditions: cited from earlier work

Sequence of C-terminally His-tagged human ECRG4(32–148) (human) (Q9H1Z8 32-148): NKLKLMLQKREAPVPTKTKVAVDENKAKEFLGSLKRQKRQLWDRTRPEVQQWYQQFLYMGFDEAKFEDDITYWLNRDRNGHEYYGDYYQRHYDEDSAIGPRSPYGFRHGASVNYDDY
Sequence of C-terminally His-tagged human ECRG4(71–132) (human) (Q9H1Z8 71-132): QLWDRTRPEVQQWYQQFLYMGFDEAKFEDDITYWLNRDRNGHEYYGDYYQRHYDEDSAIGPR
Sequence of CRP (P02741 19-224): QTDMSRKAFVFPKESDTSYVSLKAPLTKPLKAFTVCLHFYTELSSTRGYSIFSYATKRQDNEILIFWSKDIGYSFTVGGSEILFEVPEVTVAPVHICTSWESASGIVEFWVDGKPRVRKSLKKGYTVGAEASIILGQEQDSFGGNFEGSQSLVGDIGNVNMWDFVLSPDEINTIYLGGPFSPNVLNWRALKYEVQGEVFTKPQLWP

Kd [1] [µM]	Kd [2] [µM]	Kd [3] [µM]	Substance	Kd (LOX-1 (Homo sapiens)) [µM]
0.01	0.01	0.01	2 × CTLD–Fc (two human LOX-1 CTLDs in tandem, Fc-fused) (Fc fusion)	
			CRP (from UniProt P02741)	0.16
